In article PMC12848141:

Assays:
OGT [1] = target: OGT (UniProt O15294); assay: co-IP in H1299 cells; settings: reference: YTHDF2 wild type; sites S39
[2] = O-GlcNAc at T49
OGT [3] = target: OGT (UniProt O15294); assay: co-IP of HA-YTHDF2 and Myc-OGT; settings: reference: HA-YTHDF2 wild type; sites S39
[4] = CHX pulse-chase, protein remaining, H1299; settings: glycan lost; control: HA-YTHDF2-WT
[5] = anti-HA IP, anti-pS39 blot, 293T
[6] = anti-ubiquitin blot, H1299; settings: glycan lost; control: HA-YTHDF2-WT
anti-pS39 blot, H1299 = settings: glycan lost; control: HA-YTHDF2-WT
[7] = anti-HA IP, anti-ubiquitin blot, 293T, MG132; settings: glycan lost; control: HA-YTHDF2-WT
[8] = CHX pulse-chase, protein remaining, HEK-293T; settings: glycan lost; control: HA-YTHDF2-WT

With “YTHDF2 (from UniProt Q9Y5A9) YTHDF2-S39A” the “binding against the reference” value (OGT [1]) was “stronger”.

For YTHDF2: Flag-OGA overexpression, the other [2] was “decreases, YTHDF2 ubiquitination, Ub/HA ratio ~0.5 vs 1.0 without OGA (read from plot, P < 0.05)”.

With “YTHDF2: TMG plus glucose (OGA inhibition, raises O-GlcNAcylation)” the other [2] was “decreases”.

For “YTHDF2 (from UniProt Q9Y5A9) HA-YTHDF2-S39A”, the “binding against the reference” value (OGT [3]) was “stronger”.

In the case of YTHDF2: OGA overexpression, the other [2] is reported as “decreases”.

B1: YTHDF2: T49A (protein)
parent chain: MSASSLLEQRPKGQGNKVQNGSVHQKDGLNDDDFEPYLSPQARPNNAYTAMSDSYLPSYYSPSIGFSYSLGEAAWSTGGDTAMPYLTSYGQLSNGEPHFLPDAMFGQPGALGSTPFLGQHGFNFFPSGIDFSAWGNNSSQGQSTQSSGYSSNYAYAPSSLGGAMIDGQSAFANETLNKAPGMNTIDQGMAALKLGSTEVASNVPKVVGSAVGSGSITSNIVASNSLPPATIAPPKPASWADIASKPAKQQPKLKTKNGIAGSSLPPPPIKHNMDIGTWDNKGPVAKAPSQALVQNIGQPTQGSPQPVGQQANNSPPVAQASVGQQTQPLPPPPPQPAQLSVQQQAAQPTRWVAPRNRGSGFGHNGVDGNGVGQSQAGSGSTPSEPHPVLEKLRSINNYNPKDFDWNLKHGRVFIIKSYSEDDIHRSIKYNIWCSTEHGNKRLDAAYRSMNGKGPVYLLFSVNGSGHFCGVAEMKSAVDYNTCAGVWSQDKWKGRFDVRWIFVKDVPNSQLRHIRLENNENKPVTNSRDTQEVPLEKAKQVLKIIASYKHTTSIFDDFSHYEKRQEEEESVKKERQGRGK
For B1, the degradation_or_half_life [4] was “increases”, the “other: Ser-39 phosphorylation” value ([5]; glycan lost, control: HA-YTHDF2-WT) was “increases” and the “other: ubiquitination” value [6] was “decreases”. For the same molecule, the “other: Ser-39 phosphorylation” value (anti-pS39 blot, H1299) was “increases”, the “other: ubiquitination” value [7] was “decreases” and the degradation_or_half_life [8] was “increases”.

B2: YTHDF2: TMG plus glucose (protein)
parent chain: B1 parent chain
In the case of B2, the “other: Ser-39 phosphorylation” value ([5]; glycan gained, control: untreated cells) is reported as “decreases”.
